Test results from the DeepSol protein solubility set.

Experiment: soluble on expression in E. coli; label from the status in PepcDB or PDB records

| Sequence | soluble on expression in E. coli |
| --- | --- |
| MKRRKQSRRWRGKKYAPVMIGMLVLLMNLADLKISNLISGSIICQAAERQSENTETENNSGGTEKEKITQTEASTVSDILEELDLSRVQRMLDQMLGEESFSMKDMLDGLIKGEKVLSEDTVQEMVHSFLFSGLEKEKS | not soluble |
| MSGARLHTLLPELTTRQPVMVVGAAVIDVIADAYALPWRGCDIELKQQSVNVGGCALNIAVALKRLGIEAGNALPLGQGVWAEIIRNRMAKEGLISLIDNAESDNGWCLALVEPDGERTFMSFSGVENQWNRQWLARLTVAPGNLLYFSGYQLASPCGELLVEWLEKLQDVTPFIDFCPRIGDIPDALLARIMACRPLVSLNRQEAEIAAERFALSAEITTLGKQWQEKFAAPLIVRLDKEGAWYFSNDASGCIPAFPTQVVDTIGAGDSHAGGVLAGLASGLPLADAVLLGNAVASWVVGHRGGDCAPTREELLLAHKNV | not soluble |
| GPGSMQKENDRMRKKKDEAREEEEISIFHCDDGSVYEGRVTRREIPVELPLGMPTPAPASTLRGQPPPEVMPQIVPIQHGKGIFKDAGGTIYDGNWIEGAMCGEGVLQFPSGATYTGGMRANEFCGTGTYNWPDGSRYEGQWENNRMHGFGVYVDAQGGRWAGKFYRGCGVGLLGEIHL | soluble |
| MSLEELVKKLGDKLNEAEADAKKFGKLIGRITRFESVSLKDNELIGVDIAFEDYLNSDVKKGQYLAIRSITRPVTILGQVRAITRADALSKLGIRELSYPKDPTTIITTTYVELKPIAEIENGKIRPPVSPVDPQSPVFIPNHDLIEKILNIPSRGITIGKIFSGGEETDASVRLDEYTLRHHTLILGTTGSGKTTLLKSMISSEEIDKGTFIFDRQGDFINYLIEKRRGFAVIMPVVEEASRSISLKDHAEKFANWYDCDNILDVKEDGVLEECNGSEVFLIPYSINFYSVLKNFNKITPYFTPKASMYWEAIVNNMFEIIGYDLYELADKKQTFYEDQLSDFLRDRLTPGSLLGKISGFYDLKMVSGSKSKQFSSYDGSKKMLTINMGKAFEEAMKRLDVPYQTKEAILRTLKAYDSYGIFTVPGTVDFKPKDVFSSYSDVVVDLSWVMNRSASIEAVATIAYKLLEDFFNWKDELYKMKETTKLTLVIMDEAHEYFPQTDQENVSKDIVEGLINRIMRLGRVRNIGVVLATHVPEDLNPLVLQLTNTKVVMRNESHVLRRLGLEEYEDFLRHATPGLAIVYSIYFSEVPIKTIQREGHHHHHH | soluble |
| MEAVDLAFANYAERFARSCKGDGWRRLVERAIRLYLTPVLGKKALPAINRTDVVSVFDNMPADQVANRRNVFAVLRRLFRWAVSRGDLDRSPMEGMLEHHHHHH | not soluble |
| GPGSMPHGISYYEFPWPDMTAPQQDIVLRSVQVMDYHIKQKGKVLVHCHAGLGRTGLMIACYYVYSQHIPSDEAIALVRKMRPGAIQTTRQAQFIADFEKHLWRLSQAFRVEISDALIDLNLFIQRQRLVLHGEQADLYKSVPLFLHTILCRLLNLTKDNPEAARLALQSLGPSAAPTDTTLSACRIAINRRRFRVQSVRDVSILSFLVCDWFRSTSSPALTEENCDQIVESMRASISKQEGLPLEIRRILSKPARHTLGMVISAFFIISRQVGCVSLTNFAFRCVVDSFNHAFNPIKVRHSPLERELIHKFFLEWGESVGDLYFNYDTVPAAHRTIKRIALASSIVLEATKNTDPPRRSSPSVRTLSVPSSTPEMSSNPAKQTGAPDSALVFSTQSRASHLFDMPLAVETDSESKTRLWRQHLIEYRRDTDGRRGRGERQRPPASSADAKVKR | not soluble |
| MSLNKIKILPLAIALALSGCGSDETTPIDTGSHVASPDWQDQIIYFLMIDRFNDGDSALNDQGQNEFDPTSDKKFSGGDLVGVSDKLSYIEDLGATSIWITPPVANQWWDAEQNYGGYHGYWARDFQKVDEHFGDMESYQALAREVHARNMFLIQDIVTNHVGNFFTYDDPYSYDPSLPCQGFRLIKNALPAGQELPYPLNMNECKTDGTGSYHWTPTITDHNDPVQEKTWQLSDLDDLNTSDPEVRAYLKESYRKWIREVGVDGFRIDTVKFVEHDFWSDFLHADDGVMTQAVDTGRDNFLTFGEVFETSTPYHTEGEEKMLTYIGESGSPKQLTSVLNFPLQATMTRVFASGQPTDYLRFRLEKMMEMFPNPYIMPNFIDNHDMPRFLSQGSVNDMKQALITMMSVPGIPVIYQGTEQAMSAARDAMFAGGYREDGNYVDSFDQNSEMYLFIQELAKLRTENKVMTRGEIKVIGSDKAGAGVFAFTRTLDNDEVLVVMNTSNSPMLMNQLDVEQAGGTVFKQQIMSNWADAPEQLVADENGHVTLELPAKSAVIYSKTSSNQSVNTPDLNIQLAQDWEGKTITGDIVIAGSANANEKLNLVVDGNLETAQTITVGADGQFSVTLSTRHFAIGEQQHRFAIYSTEKKAGIEDVNFVSNLSWSNTPDDTIDDAGDAQDGVGGPNGNYSLPTDPTFDKDNSQLAINKAEVFTVGSNVRLTFTMDKITDTWLPPNGFDHVGFTIFIDLPEEAATNLSELPKINASMPNGTWSRNAVVFGWQSSIYNTKGANATTWGEAVTPAPTVTVDKANNTISMDFASDALGRPESLDGIRFYVTTWDLDGLSATYRPLEQDKGPWNFSGGASDESKIWDDLPIITLSEGHHHHHH | soluble |
| MSLSIALIAPYESLATLCRSICQELDLDVSVHTGSMEDGVRIARNLMAEGVDFFISRGLTAQLIREQCPLPVAELEVSAFDIYLCLEPLLRSGKSIGVVGHSDILRKAKGASAALGFTIDFYATAHPGGMGHIMEAARRQGIAAIAGDAVAARTAERYGMEGVLVQNGADSVTNTLQYAVATYSYLTRQATMAGRLQTVLDRMDGGALLASPDGRMLHCNAAVRAMLEPDQGCTETSMDDLFPQLDWRAVPEGRAETVRELVTVGGSKLAVTVTGTMHDDAMDALICTFHDVRQIEQLEHSFRKSEGHHHHHH | soluble |
| MSLRGQVHSVFVVVPRFNLTTLITMIETMRIGNYLSSERLFSWEVTSFDGLNLGASNGVRVHLDVEPDQTAPADQVFVLASWGGEHYQNKALASWLRKRARQGERICAVELGCYLVARAGLMDGKEATTHWSWINGFQEKFDQISVVEQLFTIDGRILTCAGGMAGVDLMLRLIEQSHGAGFSGEIADQMLHNPIRKGSSSQRRTMGRGTESILPLVRQAMTLIERNIEEPLTVPQIAAALDVSQRQLERQFKKHVGCTVVQFGLLRRLQNARVLLIATELSVREIATASGFNTLSHFSYSFSKFFGRRPSDYREAWPSNEAAPTWPGTLSDFLHAINSGDKREGHHHHHH | not soluble |
| EALLNDSALQSVPIVVPSRGSKLLGATLKTELTQEEVQQTLVDGFFPQVAITDHPVQRNRGALTQMGLPYAQDAGITRHIAAFLSKQAHAQSGGESAQAQDFNPFANMPGMPGSDAAQSADFIKPTAILFNGGVLKSKLLATRLEDTINKWLIEADAEMAKRLTGVDLDLAVASGAAYYGSVRRGQGVRIRGGIASAYYVGIESAMPAIPGMAPPMEALCVAPFGMEEGSSVDVPSQEFGLIIGQPVNFQFFGSTVRRDDLAGTHLDYWAPEELEELPEIQVTLPVSEGRREGEVVPVTLASRVTELGTLYLEAIAADNGQKWHVEFDVREDAKSDSNEEQ | not soluble |
| MRILAFPYTHTLSHLSRVLAVALELRRMGHEVVFAGESAKVSFVSQQGFDVVPIHEPDPEMLFGNIRSGKLRFVEDAELLQMLTADIEVIRSLKPDLVLSDGRFSAPLSTHLTNVRHAAIVNASSTEYRALPYVPFFDWMPPWLISRDAMIWKALVRLNLFLEMKLFDNVMKVFKRLSRELNTNRTVTATNCLTGKDITLLADIPEYFPSRNLPASYHYVGPLTWKSVLAPPAWWPLDIPSSPLVYVTMGTTGVSEFFSKLGPSLSTSFFSSIVTTGGQSSELKPMPGKVYVESYLDGDLVMERSDVVICHGGNGTIYQALSHGKPVIGIPTIPDQKFNMRRVEAMGFGKSLDLKQFLEKPSLLADTVKQVLSDHSFRNSAQKIQAVLKSYNAATTSAKILIDSILLEHHHHHH | not soluble |
| MIVRFAGRRGVVSTCNLNGGYREDLRYAFNNSCGRDPDVIAKRSVGMRGKTMIEHYAALAEELGLPLDKTTGMGTAALIENTATSSRQYHGVTVMAVATAGIDVNGGRAGEPAAYNEFTQTDLIKPGTINVFLFIDASLDAGTLTRALVTATEAKSAALQELMANSMYSEDLATGSGTDSLIAICNKESEIVLQNSGKHVLLGEMIGQSVKEAITEALSRQTKMTPTRQASIEWQTKRYGITREAIVSECLRLYPHLKKEVVEAGIGGIDRDNRLVAAVAAIAHLCDQNRWQIISDKSMTCTAENILHTILSERGISEEANRKDIVCGQDAPAYRQVLSLCLHTLARILHNRIIHSSL | not soluble |
| MGSDKIHHHHHHMAEFTHLVNERRSASNFLSGHPITKEDLNEMFELVALAPSAFNLQHTKYVTVLDQDVKEKLKQAANGQYKVVSSSAVLLVLGDKQAYQQAADIYEGLKVLGILNKQEYDHMVQDTVSFYENRGEQFKRDEAIRNASLSAMMFMLSAAAAGWDTCPMIGFDAEAVKRILNIDDQFEVVMMITIGKEKTESRRPRGYRKPVNEFVEYM | soluble |
| MSLRNPIRIFIVDDHEIVRQGLKVIINQEQDFELVGESNGQKGLLKEIAEAHPDVLLLDIRISGSDGFDIASQLNEKFPSIKILIISGYESELYLVEALDHKVSGFIPKGSSRDYVCSAIRMVALGGTVWHGELLYRVIRGLSRLGNEPNDTKVQIGKSHLKPRELKVLSLLAKGKLNKEICFELQISMDTVKKDIHQLKSKYGVFNRTQLATIATEMQLKEGHHHHHH | not soluble |
| MHHHHHHSSGRENLYFQGTLSALAVDLGGTNLRVAIVSMKGEIVKKYTQFNPKTYEERINLILQMCVEAAAEAVKLNCRILGVGISTGGRVNPREGIVLHSTKLIQEWNSVDLRTPLSDTLHLPVWVDNDGNCAALAERKFGQGKGLENFVTLITGTGIGGGIIHQHELIHGSSFCAAELGHLVVSLDGPDCSCGSHGCIEAYASGMALQREAKKLHDEDLLLVEGMSVPKDEAVGALHLIQAAKLGNAKAQSILRTAGTALGLGVVNILHTMNPSLVILSGVLASHYIHIVKDVIRQQALSSVQDVDVVVSDLVDPALLGAASMVLDYTTRR | soluble |
| GGVIATQMTYKVYMSGTVNGHYFEVEGDGKGRPYEGEQTVKLTVTKGGPLPFAWDILSPQCQYGSIPFTKYPEDIPDYVKQSFPEGFTWERIMNFEDGAVCTVSNDSSIQGNCFTYHVKFSGLNFPPNGPVMQKKTQGWEPSSERLFARGGMLIGNNFMALKLEGGGHYLCEFKTTYKAKKPVKMPGYHYVDRKLDVTNHNKDYTSVEQCEISIARKPVVA | soluble |
| MGSDKIHHHHHHMKRINRFAVQIDVEGRTELAHLHDPGRLLEIVYPGNEVLVRRTDGPKLKWRIEFGKINGRYVLIDSGLHSDIARRFLPEGAVPEVRVGRKRIDFRYGDDYIEVKGCTLMANGIAMFPDAPTKRGLEHLKTLETLASSGYRSHVMMIITRDDVRCFYPNFETDPKFAEAFLRLVPAYVKAHFLTFGFDGLYLRYAGSIGLCADVGHGTNGRL | not soluble |
| MYTKILGTGSYLPVQVRSNADLEKMVDTSDEWIVTRTGIRERRIAGLDETVATMGFQAAEKALEMAGIDKDDIGLIIVATTSSSHAFPSSACQVQRMLGIKDAASFDLAAACAGFTYALSVADQYVKSGAVKHAIVIGSDVLSRALDPEDRGTIILFGDGAGAVVLGASEQPGIMSTHLHADGRYGELLALPYPDRQQDQPAYVTMAGNEVFKVAVTELAHIVDETLQANNLDRTALDWLVPHQANLRIISATAKKLGMGMDKVVITLDRHGNTSAASVPSAFDEAVRDGRIQRGQLVLLEAFGGGFTWGSALVRF | not soluble |
